Molecular target: human Fc (human)
Test: ELISA, negative control

Row | Binder | optical density [OD]
1 | 368_C09 (antibody, V domains shown) VH: EVQLLESGGGLVQPGGSLRLSCAASGFTFSSYSMHWVRQAPGKGLEWVSNINYNGGYTGYADSVKGRFTISRDNSKNTLYLQMNSLRAEDTAVYYCARAANWHDTHLDYWGQGTLVTVSS VL: DIQMTQSPSSLSASVGDRVTITCRASQSILTYVNWYQQKPGKAPKLLIYAATSLASGVPSRFSGSGSGTDFTLTISSLQPEDFATYYCQQSYDLPLTFGGGTKVEIK | 0.341
2 | 365_B10 (antibody, V domains shown) VH: EVQLLESGGGLVQPGGSLRLSCAASGFTFDDYSMHWVRQAPGKGLEWVASINYNSGYKGYADSVKGRFTISRDNSKNTLYLQMNSLRAEDTAVYYCARAANWHDTALDYWGQGTLVTVSS VL: DIQMTQSPSSLSASVGDRVTITCRASQSILRYLNWYQQKPGKAPKLLIYAATSRASGVPSRFSGSGSGTDFTLTISSLQPEDFATYYCQQSDNLPLTFGGGTKVEIK | 0.322
3 | 371_A04 (antibody, V domains shown) VH: EVQLLESGGGLVQPGGSLRLSCAASGFTFDSYGMNWVRQAPGKGLEWVSSINYNSGYTGYADSVKGRFTISRDNSKNTLYLQMNSLRAEDTAVYYCARAANWHDTALDYWGQGTLVTVSS VL: DIQMTQSPSSLSASVGDRVTITCRASQSILTYLNWYQQKPGKAPKLLIYAVTSRASGVPSRFSGSGSGTDFTLTISSLQPEDFATYYCQQSYDTPLTFGGGTKVEIK | 0.315
4 | 368_F10 (antibody, V domains shown) VH: EVQLLESGGGLVQPGGSLRLSCAASGFTFSSYGMNWVRQAPGKGLEWVAGINYNSGYTSYADSVKGRFTISRDNSKNTLYLQMNSLRAEDTAVYYCARAANWHDTHLDYWGQGTLVTVSS VL: DIQMTQSPSSLSASVGDRVTITCRASQSIVSYVNWYQQKPGKAPKLLIYAATSRASGVPSRFSGSGSGTDFTLTISSLQPEDFATYYCQQSYDTPLTFGGGTKVEIK | 0.328
5 | 368_D09 (antibody, V domains shown) VH: EVQLLESGGGLVQPGGSLRLSCAASGFTFDSYGMHWVRQAPGKGLEWVAGINYNSGYKSYADSVKGRFTISRDNSKNTLYLQMNSLRAEDTAVYYCARAANWHDTHLDYWGQGTLVTVSS VL: DIQMTQSPSSLSASVGDRVTITCRASQSIVSYVNWYQQKPGKAPKLLIYAATSLASGVPSRFSGSGSGTDFTLTISSLQPEDFATYYCQQSYDNPLTFGGGTKVEIK | 0.212
6 | 369_G10 (antibody, V domains shown) VH: EVQLLESGGGLVQPGGSLRLSCAASGFTFSSYGMHWVRQAPGKGLEWVASINYNGGYTSYADSVKGRFTISRDNSKNTLYLQMNSLRAEDTAVYYCARAANWHDTALDYWGQGTLVTVSS VL: DIQMTQSPSSLSASVGDRVTITCRASQSILSYLNWYQQKPGKAPKLVIYAATSRASGVPSRFSGSGSGTDFTLTISSLQPEDFATYYCQQSYDSPLTFGGGTKVEIK | 0.423
7 | 369_B03 (antibody, V domains shown) VH: EVQLLESGGGLVQPGGSLRLSCAASGFTFSSYGMHWVRQAPGKGLEWVAGINYNGGYTSYADSVKGRFTISRDNSKNTLYLQMNSLRAEDTAVYYCARAANWHDTALDYWGQGTLVTVSS VL: DIQMTQSPSSLSASVGDRVTITCRASQSILTYVNWYQQKPGKAPKLVIYAATSLASGVPSRFSGSGSGTDFTLTISSLQPEDFATYYCQQSYELPLTFGGGTKVEIK | 0.62
8 | 370_H08 (antibody, V domains shown) VH: EVQLLESGGGLVQPGGSLRLSCAASGFTFSSYGMHWVRQAPGKGLEWVASINYNGGYTSYADSVKGRFTISRDNSKNTLYLQMNSLRAEDTAVYYCARAANWHDTHLDYWGQGTLVTVSS VL: DIQMTQSPSSLSASVGDRVTITCRASQSILSYVNWYQQKPGKAPKLLIYAATSRHSGVPSRFSGSGSGTDFTLTISSLQPEDFATYYCQQSYSLPLTFGGGTKVEIK | 0.538
9 | 369_H03 (antibody, V domains shown) VH: EVQLLESGGGLVQPGGSLRLSCAASGFTFSSYSMHWVRQAPGKGLEWVASINYNSGYKSYADSVKGRFTISRDNSKNTLYLQMNSLRAEDTAVYYCARAANWHDTALDYWGQGTLVTVSS VL: DIQMTQSPSSLSASVGDRVTITCRASQSIVSYLNWYQQKPGKAPKLLIYATTSRASGVPSRFSGSGSGTDFTLTISSLQPEDFATYYCQQSYDTPLTFGGGTKVEIK | 0.498
10 | 370_B01 (antibody, V domains shown) VH: EVQLLESGGGLVQPGGSLRLSCAASGFTFDDYGMHWVRQAPGKGLEWVSGINYNGGYKSYADSVKGRFTISRDNSKNTLYLQMNSLRAEDTAVYYCARAANWHDTALDYWGQGTLVTVSS VL: DIQMTQSPSSLSASVGDRVTITCRASQSILSYVNWYQQKPGKAPKLLIYVASSRASGVPSRFSGSGSGTDFTLTISSLQPEDFATYYCQQSYSLPLTFGGGTKVEIK | 0.47

More lines, now with the values ahead:

Row | optical density [OD] | Binder
11 | 0.31 | 372_A09 (antibody, V domains shown) VH: EVQLLESGGGLVQPGGSLRLSCAASGFTFDSYGMNWVRQAPGKGLEWVSGINYNGGYTSYADSVKGRFTISRDNSKNTLYLQMNSLRAEDTAVYYCARAANWHDTALDYWGQGTLVTVSS VL: DIQMTQSPSSLSASVGDRVTITCRASQSILSYLNWYQQKPGKAPKLVIYAATSRASGVPSRFSGSGSGTDFTLTISSLQPEDFATYYCQQSYNSPLTFGGGTKVEIK
12 | 0.438 | 372_B11 (antibody, V domains shown) VH: EVQLLESGGGLVQPGGSLRLSCAASGFTFSSYSMHWVRQAPGKGLEWVAGINYNSGYTSYADSVKGRFTISRDNSKNTLYLQMNSLRAEDTAVYYCARAANWHDTHLDYWGQGTLVTVSS VL: DIQMTQSPSSLSASVGDRVTITCRASQSILTYVNWYQQKPGKAPKLVIYAATSLASGVPSRFSGSGSGTDFTLTISSLQPEDFATYYCQQSYDTPLTFGGGTKVEIK
13 | 0.388 | 371_H02 (antibody, V domains shown) VH: EVQLLESGGGLVQPGGSLRLSCAASGFTFDDYSMNWVRQAPGKGLEWVSGINYNGGYKSYADSVKGRFTISRDNSKNTLYLQMNSLRAEDTAVYYCARAANWHDTHLDYWGQGTLVTVSS VL: DIQMTQSPSSLSASVGDRVTITCRASQSIISYLNWYQQKPGKAPKLVIYAATSLASGVPSRFSGSGSGTDFTLTISSLQPEDFATYYCQQSYENPLTFGGGTKVEIK
14 | 0.337 | 371_D12 (antibody, V domains shown) VH: EVQLLESGGGLVQPGGSLRLSCAASGFTFDSYGMNWVRQAPGKGLEWVSGINYNGGYKSYADSVKGRFTISRDNSKNTLYLQMNSLRAEDTAVYYCARAANWHDTALDYWGQGTLVTVSS VL: DIQMTQSPSSLSASVGDRVTITCRASQSILSYLNWYQQKPGKAPKLLIYAATSRASGVPSRFSGSGSGTDFTLTISSLQPEDFATYYCQQSYELPLTFGGGTKVEIK
15 | 0.299 | 371_D07 (antibody, V domains shown) VH: EVQLLESGGGLVQPGGSLRLSCAASGFTFDDYGMNWVRQAPGKGLEWVANINYNGGYKGYADSVKGRFTISRDNSKNTLYLQMNSLRAEDTAVYYCARAANWHDTHLDYWGQGTLVTVSS VL: DIQMTQSPSSLSASVGDRVTITCRASQSILTYLNWYQQKPGKAPKLVIYAATSRASGVPSRFSGSGSGTDFTLTISSLQPEDFATYYCQQSYELPLTFGGGTKVEIK
16 | 0.302 | 371_A09 (antibody, V domains shown) VH: EVQLLESGGGLVQPGGSLRLSCAASGFTFSSYGMNWVRQAPGKGLEWVSGINYNGGYKSYADSVKGRFTISRDNSKNTLYLQMNSLRAEDTAVYYCARAANWHDTALDYWGQGTLVTVSS VL: DIQMTQSPSSLSASVGDRVTITCRASQSIVTYVNWYQQKPGKAPKLVIYAATSRASGVPSRFSGSGSGTDFTLTISSLQPEDFATYYCQQSYDSPLTFGGGTKVEIK

Reference: patent US20210380703A1
